Results on 167 variants are retold here after the RNAGym collection of RNA variant scans (doi:10.1093/nar/gkz1192).

The labels stand for the following.
B1: CPEB3 Ribozyme (parent)
chain: UAACAGGGGGCCACAGCAGAAGCGUUCACGUCGCAGCCCCUGUCAGAUUCUGGUGAAUCUGCGAAUUCUGCUGUAUAUCUC

This data set covers variants of B1. Kind of data set: self-cleavage, relative activity (ratio to wild type); higher = more cleavage; in vitro, sequencing. The method, boiled down:
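CPEB3 self-cleaving ribozyme mutant libraries were made by rounds of error-prone PCR, barcoded, and transcribed in vitro with T7 RNA polymerase for 5 hours at 37°C. Cleavage occurred during transcription and a 15 min DNase I step before EDTA stop. RNAs were reverse transcribed with template switching and Illumina-sequenced, with DNA sequencing mapping barcodes to variants. Relative activity is the variant's cleaved/total read fraction divided by wild type's (minimum 5 reads), averaged across three batches.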
Consider A21C G55C, for which the self-cleavage came to 0.21. As for A20U G52U, the self-cleavage turned out to be 0.38. A20U G52A: the self-cleavage was found to be 0.41. Regarding A20U G52C, the self-cleavage was determined as 0.27. On to A21G U66G, for which the self-cleavage is 0.44. For the variant A21G U66C, the self-cleavage stood at 1.05. Take A21G U66A: the self-cleavage came to 0.42.

Consider A21G U80C, for which the self-cleavage came out at 0.74. Regarding A21G U80A, the self-cleavage is 0.72. Take A21G U80G: the self-cleavage amounted to 0.76.

Take A20U C37U: the self-cleavage amounted to 0.21.

Regarding A21G U74A, the self-cleavage amounted to 1.03.

As for A21G U74C, the self-cleavage stood at 0.96. For A21G U26C, the self-cleavage came to 0.29. Turning to A21G U26G, the self-cleavage turned out to be 0.25. Regarding A21G U26A, the self-cleavage was found to be 0.52.

For the variant A21G A77C, the self-cleavage was found to be 0.63. For A21G A77U the value was 0.71. For the variant A21G A77G, the self-cleavage was 0.66. For A21C U25C the value was 0.28; for A21C U25A, 0.28; for A20U C44A, 0.27.

Regarding A21G U60G, the self-cleavage stood at 0.29.

Turning to A21G U60C, the self-cleavage worked out at 0.27. Consider A21G U60A, for which the self-cleavage was found to be 0.32. Take A21G C38U: the self-cleavage was 0.57. For A21G C38A the value was 0.33; for A21G C38G, 0.26; for A21C U48C, 0.19.

Regarding A20U A56C, the self-cleavage turned out to be 0.54. Turning to A20U A56G, the self-cleavage was determined as 0.25. For the variant A20U A56U, the self-cleavage came to 0.25. Regarding A20U G46A, the self-cleavage was 0.07. A20U G46U: the self-cleavage came out at 0.18. For the variant A21C C38U, the self-cleavage turned out to be 0.16. In the case of A21C C38A, the self-cleavage stood at 0. With A21C U54C, the self-cleavage turned out to be 0.23. In the case of A21C U54A, the self-cleavage is 0.17.

For A21G G33U, the self-cleavage was 0.19. Regarding A21G G33A, the self-cleavage amounted to 0.33. With A21G G33C, the self-cleavage was determined as 0.14. For A21G C39U, the self-cleavage came out at 0.3. As to A21G C39A, the self-cleavage is 0.1. The result for A21G C39G reads 0.37. In the case of A21U A28G, the self-cleavage worked out at 0.22. A21U A28C: the self-cleavage was 0.15. Turning to A21U A28U, the self-cleavage came to 0.23. Turning to A21G A47G, the self-cleavage came out at 0.42. Consider A21G A47U, for which the self-cleavage was found to be 0.36. Turning to A21C U67C, the self-cleavage is 0.1.

As for A21G G53A, the self-cleavage was 0.58. With A21C A56G, the self-cleavage turned out to be 0.3.

For A21C A56U, the self-cleavage was 0.16.

As for A21G C81U, the self-cleavage is 0.92. A20U U41C: the self-cleavage came to 0.28.

On to A20U U41A, for which the self-cleavage amounted to 0.3. In the case of A20U U41G, the self-cleavage was found to be 0.23.

Take A21G G24U: the self-cleavage amounted to 0.44. With A21G G24C, the self-cleavage is 0.23. For A21G G24A the value was 0.24; for A20U A64U, 0.26. With A20U A64G, the self-cleavage came out at 0.35. Turning to A20U C71A, the self-cleavage was determined as 0.17. A21G C23G: the self-cleavage was found to be 0.37. For A21G C23A the value was 0.32; for A21G C23U, 0.2; for A21G G55A, 0.42.

Regarding A21G G55U, the self-cleavage turned out to be 0.57. Regarding A20U A28U, the self-cleavage was found to be 0.19. A20U A28C: the self-cleavage was determined as 0.18. Take A20U A28G: the self-cleavage came out at 0.22. As to A21G A56C, the self-cleavage is 0.36. Take A21G A56U: the self-cleavage is 0.41. The result for A21G A56G reads 0.4.

Take A20U U31C: the self-cleavage was found to be 0.26.

In the case of A20U U31A, the self-cleavage stood at 0.24. As for A20U U31G, the self-cleavage was determined as 0.23. For A21C U72A, the self-cleavage came out at 0.19. A20U A45U: the self-cleavage amounted to 0.14. Regarding A20U A45G, the self-cleavage came out at 0.28. On to A20U A45C, for which the self-cleavage turned out to be 0.12. As to A21C U60C, the self-cleavage worked out at 0.07.

For A21C U60A, the self-cleavage worked out at 0.36. Take A21C U60G: the self-cleavage was 0.15. Turning to A21G C79U, the self-cleavage is 0.76. Consider A21G U31G, for which the self-cleavage stood at 0.41. The result for A21G U31C reads 0.24; that for A21G U31A, 0.33.

On to A21G U72G, for which the self-cleavage worked out at 0.53.

For the variant A21G U72A, the self-cleavage was 0.44. For A21G U72C the value was 0.65; for A21G C71U, 0.32.

For A21G C71A, the self-cleavage stood at 0.07.

Consider A21C U26A, for which the self-cleavage stood at 0.23. For the variant A21G U49G, the self-cleavage was 0.23. The result for A21G U49C reads 0.27; that for A21G U49A, 0.48; that for A20U U51A, 0.25.

Take A20U U51C: the self-cleavage worked out at 0.32. For the variant A21C U43A, the self-cleavage is 0.35. Take A21C U43C: the self-cleavage turned out to be 0.19. For A21G U78A, the self-cleavage stood at 0.53. Turning to A21G U78C, the self-cleavage came to 0.58.

As for A20U U49A, the self-cleavage is 0.2.

A20U U49C: the self-cleavage was found to be 0.3.

On to A21C U69C, for which the self-cleavage was 0.2.

For the variant A21C U69A, the self-cleavage worked out at 0.17. For A21C U80C, the self-cleavage came to 0.1. In the case of A21C U80A, the self-cleavage came out at 0.18.

Regarding A21C G53U, the self-cleavage is 0.15. A20U A47G: the self-cleavage was 0.33. As to A20U G22U, the self-cleavage worked out at 0.1. Consider A20U G22A, for which the self-cleavage was 0.2. As for A21G A45U, the self-cleavage came to 0.32. Consider A21G A45C, for which the self-cleavage is 0.25.

Take A21G A45G: the self-cleavage was determined as 0.44. For the variant A20U C38A, the self-cleavage stood at 0.1.

On to A20U C38U, for which the self-cleavage was found to be 0.42.

On to A20G U72C, for which the self-cleavage stood at 0.84.

Turning to A20G U72A, the self-cleavage came out at 0.46. In the case of A20G U72G, the self-cleavage was 0.63.

As to A20G U67A, the self-cleavage is 0.55. A20G U67C: the self-cleavage worked out at 1.01. On to A20G U67G, for which the self-cleavage was 0.25. Regarding A20U C68U, the self-cleavage turned out to be 0.28. Consider A21C A64C, for which the self-cleavage came out at 0.17.

Turning to A21C A64U, the self-cleavage is 0.07. With A21G C50A, the self-cleavage was determined as 0.57.

As to A21G C50U, the self-cleavage was found to be 0.62.

For A21C C81G, the self-cleavage came out at 0.3. With A20G U78C, the self-cleavage turned out to be 0.85.

Regarding A20G U78A, the self-cleavage is 0.79.

A21G G52A: the self-cleavage worked out at 0.72. As to A21C C23G, the self-cleavage turned out to be 0.16. With A21G, the self-cleavage is 0.64. A21C: the self-cleavage amounted to 0.24. On to A21U, for which the self-cleavage worked out at 0.37. For A20U U54C, the self-cleavage came to 0.31. On to A20U U54G, for which the self-cleavage was found to be 0.26. For the variant A20U U54A, the self-cleavage is 0.29.

As for A20G U80C, the self-cleavage is 1.03. Take A20G U80G: the self-cleavage is 1.14. For the variant A20G U80A, the self-cleavage was 1.03. For A20U U66C, the self-cleavage came out at 0.28.

Turning to A20U U66A, the self-cleavage amounted to 0.3. For A20U U66G, the self-cleavage was 0.26. For A21G C59A the value was 0.31; for A21G C59U, 0.38. For A20U G30U, the self-cleavage is 0.24.

For the variant A21G A57U, the self-cleavage was 0.38. Take A21G A57G: the self-cleavage worked out at 0.49. On to A21C U74C, for which the self-cleavage amounted to 0.08. Consider A20U C59G, for which the self-cleavage turned out to be 0.24. For the variant A20U A21U, the self-cleavage worked out at 0.29. Consider A20U A21G, for which the self-cleavage was determined as 0.23. As to A21G U67C, the self-cleavage was found to be 0.24. Consider A21G U67A, for which the self-cleavage came to 0.24.

In the case of A21G A75G, the self-cleavage worked out at 0.56.

For A21G A75U, the self-cleavage came out at 0.72.

In the case of A21G A75C, the self-cleavage was 0.62.

Take A20U C23A: the self-cleavage amounted to 0.22.

Consider A20U C23G, for which the self-cleavage was 0.3.

On to A20U C23U, for which the self-cleavage worked out at 0.4. Turning to A21G C37U, the self-cleavage stood at 0.39. For A21G C37G, the self-cleavage came to 0.19. Consider A21G C37A, for which the self-cleavage turned out to be 0.42.

Regarding A20U C50A, the self-cleavage stood at 0.21.
